Results: IntAct's records for PubMed 20010840

B1: Signaling lymphocytic activation molecule (Homo sapiens), Q13291 (parent)
chain: MDPKGLLSLTFVLFLSLAFGASYGTGGRMMNCPKILRQLGSKVLLPLTYERINKSMNKSIHIVVTMAKSLENSVENKIVSLDPSEAGPPRYLGDRYKFYLENLTLGIRESRKEDEGWYLMTLEKNVSVQRFCLQLRLYEQVSTPEIKVLNKTQENGTCTLILGCTVEKGDHVAYSWSEKAGTHPLNPANSSHLLSLTLGPQHADNIYICTVSNPISNNSQTFSPWPGCRTDPSETKPWAVYAGLLGGVIMILIMVVILQLRRRGKTNHYQTTVEKKSLTIYAQVQKPGPLQKKLDSFPAQDPCTTIYVAATEPVPESVQETNSITVYASVTLPES

Variants of: B1
Settings: with hema_mease H

| Variant | effect of a mutation on the interaction |
| --- | --- |
| MDPKGLLSLTFVLFLSLAFGASYGTGGRMMNCPKILRQLGSKVLLPLTYERINKSMNKSIHIVVTMAKSLENSVENKIVSLDPSEAGPPRALGDRYKFYLENLTLGIRESRKEDEGWYLMTLEKNVSVQRFCLQLRLYEQVSTPEIKVLNKTQENGTCTLILGCTVEKGDHVAYSWSEKAGTHPLNPANSSHLLSLTLGPQHADNIYICTVSNPISNNSQTFSPWPGCRTDPSETKPWAVYAGLLGGVIMILIMVVILQLRRRGKTNHYQTTVEKKSLTIYAQVQKPGPLQKKLDSFPAQDPCTTIYVAATEPVPESVQETNSITVYASVTLPES [Y91A] | decreasing interaction |
| MDPKGLLSLTFVLFLSLAFGASYGTGGRMMNCPKILRQLGSKVLLPLTYERINKSMNKSIHIVVTMAKSLENSVENKIVSLDPSEAGGGRYLGDRYKFYLENLTLGIRESRKEDEGWYLMTLEKNVSVQRFCLQLRLYEQVSTPEIKVLNKTQENGTCTLILGCTVEKGDHVAYSWSEKAGTHPLNPANSSHLLSLTLGPQHADNIYICTVSNPISNNSQTFSPWPGCRTDPSETKPWAVYAGLLGGVIMILIMVVILQLRRRGKTNHYQTTVEKKSLTIYAQVQKPGPLQKKLDSFPAQDPCTTIYVAATEPVPESVQETNSITVYASVTLPES [P88G;P89G] | decreasing interaction |
| MDPKGLLSLTFVLFLSLAFGASYGTGGRMMNCPKILRQLGSKVLLPLTYERINKSMNKSIHIVVTMAKSLENSVENKIVSLDPSEAGPPAYLGDRYKFYLENLTLGIRESRKEDEGWYLMTLEKNVSVQRFCLQLRLYEQVSTPEIKVLNKTQENGTCTLILGCTVEKGDHVAYSWSEKAGTHPLNPANSSHLLSLTLGPQHADNIYICTVSNPISNNSQTFSPWPGCRTDPSETKPWAVYAGLLGGVIMILIMVVILQLRRRGKTNHYQTTVEKKSLTIYAQVQKPGPLQKKLDSFPAQDPCTTIYVAATEPVPESVQETNSITVYASVTLPES [R90A] | decreasing interaction |
